Self-cleavage data for 167 variants are collected here from the RNAGym collection of RNA variant scans (doi:10.7554/elife.80360).

The chains are these.
B1: Hairpin Ribozyme (parent)
chain: GUCCUCUUUCACGUGCGCGUGAAAGAGAGAAGUGAACCAGAGAAACACACGUUGUGGUAUAUUACCUGGUA

In the data set the parent is B1. As to the kind of experiment: self-cleavage, relative activity (ratio to wild type); higher = more cleavage; co-transcriptional.
Take A45G U53G: the self-cleavage was 0.108.

In the case of A45G U53C, the self-cleavage stood at 0.4.

With C46U U67A, the self-cleavage came out at 0.0755.

Turning to C46U U67C, the self-cleavage came to 0.11.

In the case of A44U U53C, the self-cleavage worked out at 0.0977.

Consider C46U A61U, for which the self-cleavage is 0.267.

A45C A61C: the self-cleavage came out at 0.239.

A45C A61U: the self-cleavage was determined as 0.186.

Take A44C A71G: the self-cleavage is 0.211.

With A45G A47U, the self-cleavage is 0.113.

Regarding A45G A47C, the self-cleavage is 0.228.

C46G A47U: the self-cleavage stood at 0.136.

Take A47C A61C: the self-cleavage is 0.152.

With C46G U62G, the self-cleavage turned out to be 0.14.

C46G U62C: the self-cleavage was 0.249.

Consider A45G C46G, for which the self-cleavage is 0.181.

A44U G68C: the self-cleavage stood at 0.148.

On to A44U G68A, for which the self-cleavage was found to be 0.116.

Regarding A45U G57U, the self-cleavage is 0.166.

On to A45U U52G, for which the self-cleavage is 0.122.

As to A45U U52C, the self-cleavage worked out at 0.103.

As for C46U A64U, the self-cleavage amounted to 0.198.

A45U G56C: the self-cleavage turned out to be 0.198.

As for C46A G69U, the self-cleavage was found to be 0.171.

C46A G69C: the self-cleavage came to 0.0874.

Consider A45G A59U, for which the self-cleavage amounted to 0.0542.

Take A45G A59G: the self-cleavage worked out at 0.174.

On to A45U U60G, for which the self-cleavage stood at 0.188.

Take A45U U60A: the self-cleavage was found to be 0.147.

Turning to A45U A64U, the self-cleavage is 0.0728.

A45U A64G: the self-cleavage was determined as 0.16.

With A44C G68U, the self-cleavage turned out to be 0.126.

Consider A45U C48G, for which the self-cleavage is 0.14.

Regarding A43U U60G, the self-cleavage amounted to 0.0802.

For the variant A43G A64C, the self-cleavage turned out to be 0.191.

With A43G G57C, the self-cleavage turned out to be 0.195.

With C46G G57C, the self-cleavage worked out at 0.0539.

Turning to C46G G57A, the self-cleavage came out at 0.0965.

On to A43C A71G, for which the self-cleavage came to 0.186.

Take A45U A71G: the self-cleavage was found to be 0.189.

In the case of A45U A71C, the self-cleavage was found to be 0.286.

On to A45U A71U, for which the self-cleavage stood at 0.156.

As to C46U U58G, the self-cleavage worked out at 0.0629.

For the variant C46A C50G, the self-cleavage was determined as 0.159.

Take C46A C50A: the self-cleavage came to 0.117.

With C46A A61G, the self-cleavage amounted to 0.0812.

Turning to C46A U70A, the self-cleavage was determined as 0.205.

On to C46A U70C, for which the self-cleavage was determined as 0.026.

Regarding C46A U70G, the self-cleavage is 0.0934.

On to A45C G69C, for which the self-cleavage turned out to be 0.193.

As to A45C G69U, the self-cleavage is 0.215.

A44G U70A: the self-cleavage stood at 0.

A45G C48G: the self-cleavage stood at 0.113.

Take A45G C48U: the self-cleavage came to 0.0892.

For A43U A64G, the self-cleavage came out at 0.159.

For A44G A71U, the self-cleavage is 0.158.

For the variant A45C G54C, the self-cleavage came to 0.137.

For the variant A45C G57A, the self-cleavage worked out at 0.115.

Turning to A47C A49U, the self-cleavage was 0.171.

Turning to A44G C48G, the self-cleavage turned out to be 0.115.

On to A44G C48U, for which the self-cleavage stood at 0.0899.

A45U A61C: the self-cleavage was 0.0246.

Regarding A45U A61U, the self-cleavage is 0.122.

For the variant A43U G56A, the self-cleavage was 0.155.

On to A47C C50U, for which the self-cleavage is 0.303.

On to A43C A64G, for which the self-cleavage was 0.185.

In the case of A43C A64C, the self-cleavage came to 0.0846.

Take A45C C66A: the self-cleavage worked out at 0.187.

Take A45C C66G: the self-cleavage was found to be 0.319.

As for A45C C66U, the self-cleavage is 0.

In the case of A43G G54A, the self-cleavage was found to be 0.066.

As for A43U A49G, the self-cleavage is 0.151.

Regarding A43C U60C, the self-cleavage came out at 0.196.

With A43C A61G, the self-cleavage was 0.147.

Take A45C A47G: the self-cleavage turned out to be 0.0534.

For C46G U67A, the self-cleavage amounted to 0.094.

With C46U A71U, the self-cleavage turned out to be 0.121.

Consider A43G G69U, for which the self-cleavage amounted to 0.126.

As to A44G C65A, the self-cleavage is 0.0664.

A44G C65U: the self-cleavage is 0.0694.

Turning to A44C A49G, the self-cleavage came to 0.22.

As for C46A C65U, the self-cleavage was 0.259.

Take C46U U60G: the self-cleavage stood at 0.223.

As for A43C C66A, the self-cleavage amounted to 0.0928.

As for A44G U58G, the self-cleavage was determined as 0.198.

For A47C A64G, the self-cleavage was 0.265.

Consider A47C A64C, for which the self-cleavage is 0.233.

On to A44U U55A, for which the self-cleavage was 0.282.

For A43C U67G, the self-cleavage was found to be 0.13.

Regarding A44U U58C, the self-cleavage is 0.177.

Turning to A44U U58A, the self-cleavage was 0.0794.

On to A44G G68C, for which the self-cleavage came out at 0.244.

On to A44G G68A, for which the self-cleavage is 0.155.

As to A43U G54U, the self-cleavage turned out to be 0.129.

In the case of A43U C48U, the self-cleavage amounted to 0.162.

Regarding A43U C48G, the self-cleavage was determined as 0.166.

Turning to A43C U62G, the self-cleavage came out at 0.257.

Consider A44U U60G, for which the self-cleavage was 0.179.

As for A44U A45C, the self-cleavage was found to be 0.321.

Regarding A44C U67C, the self-cleavage turned out to be 0.099.

As for A44C U67G, the self-cleavage came out at 0.094.

A45G U70A: the self-cleavage came to 0.184.

On to A45G U70G, for which the self-cleavage turned out to be 0.137.

On to A43G A61G, for which the self-cleavage worked out at 0.188.

For A43G A61U, the self-cleavage turned out to be 0.169.

As to A44U G57C, the self-cleavage is 0.0924.

On to A44U G57U, for which the self-cleavage was 0.206.

A44C A59U: the self-cleavage turned out to be 0.103.

Turning to A45G U67G, the self-cleavage was 0.0311.

On to A43C C48A, for which the self-cleavage is 0.135.

Regarding A44G U52A, the self-cleavage is 0.246.

As for C46G A59C, the self-cleavage was determined as 0.219.

C46G A59G: the self-cleavage was 0.185.

A44C G51C: the self-cleavage was determined as 0.289.

Regarding A44U C50G, the self-cleavage was found to be 0.156.

Turning to A44U C50A, the self-cleavage is 0.172.

Regarding A44G G56U, the self-cleavage was 0.226.

In the case of A45G U55G, the self-cleavage was 0.

A45G U55C: the self-cleavage turned out to be 0.124.

A44U U52A: the self-cleavage came out at 0.237.

Take A44C U60A: the self-cleavage came out at 0.172.

In the case of A44G A59U, the self-cleavage was found to be 0.155.

Regarding A44G A59C, the self-cleavage is 0.179.

For A44C G56U, the self-cleavage amounted to 0.241.

For A44G G57C, the self-cleavage was 0.148.

Consider A44G G57U, for which the self-cleavage is 0.022.

With A43U U55C, the self-cleavage was 0.0805.

As for A43C C65U, the self-cleavage is 0.173.

As for A43C C65A, the self-cleavage was 0.102.

For A43C C65G, the self-cleavage stood at 0.0609.

Consider A44C G54A, for which the self-cleavage was found to be 0.184.

Regarding A44C G54U, the self-cleavage was 0.194.

A44C G54C: the self-cleavage came to 0.0581.

For the variant C46A U53C, the self-cleavage is 0.148.

As for C46A U53A, the self-cleavage was 0.139.

Turning to C46A U53G, the self-cleavage was 0.159.

As to A43U U62G, the self-cleavage came out at 0.0478.

Regarding A43U U62C, the self-cleavage is 0.107.

Regarding A43U U62A, the self-cleavage was 0.227.

As for C46A U60G, the self-cleavage stood at 0.102.

In the case of C46A G57A, the self-cleavage was 0.177.

Consider A45U C50U, for which the self-cleavage was 0.123.

As to A47C G54A, the self-cleavage worked out at 0.208.

With A45U A49U, the self-cleavage came out at 0.17.

As for A44U C65U, the self-cleavage stood at 0.14.

With C46U A59G, the self-cleavage came out at 0.112.

Turning to C46U A59U, the self-cleavage was 0.149.

Take A43G U55C: the self-cleavage was 0.201.

Take A43G U55A: the self-cleavage was found to be 0.0267.

On to C46G A49U, for which the self-cleavage is 0.0713.

A44G A64G: the self-cleavage is 0.0828.

Regarding A45C U63G, the self-cleavage is 0.136.

As for A45C U63C, the self-cleavage was 0.0707.

In the case of A45U G69C, the self-cleavage turned out to be 0.0735.

Take C46A A49U: the self-cleavage worked out at 0.149.

Regarding C46A A49G, the self-cleavage stood at 0.0498.

C46U U52G: the self-cleavage is 0.197.

Turning to A44C C50U, the self-cleavage is 0.15.

For A45C U70G, the self-cleavage came out at 0.133.

With A43C A59G, the self-cleavage is 0.284.

Take A45C G68A: the self-cleavage worked out at 0.229.

With A45C G68U, the self-cleavage stood at 0.166.

A45C U55A: the self-cleavage came to 0.192.

With A43G C50G, the self-cleavage came to 0.133.

On to A45G G57U, for which the self-cleavage is 0.175.

A45C A71C: the self-cleavage was found to be 0.453.

Consider A45C A71U, for which the self-cleavage was determined as 0.184.
